Source: the supplement of paper PMC11908140

B1: library; numbered along this chain (parent)
chain: MRKPRAAVGSGHRKQAASQEGRQKHAKNNSQAKPSACDGLARQPEEVVLQASVSSYHLFRDVAEVTAFRGSLLSWYDQEKRDLPWRRRAEDEMDLDRRAYAVWVSEVMLQQTQVATVINYYTGWMQKWPTLQDLASASLEEVNQLWAGLGYYSRGRRLQEGARKVVEELGGHMPRTAETLQQLLPGVGRYTAGAIASIAFGQATGVVDGNVARVLCRVRAIGADPSSTLVSQQLWGLAQQLVDPARPGDFNQAAMELGATVCTPQRPLCSQCPVESLCRARQRVEQEQLLASGSLSGSPDVEECAPNTGQCHLCLPPSEPWDQTLGVVNFPRKASRKPPREESSATCVLEQPGALGAQILLVQRPNSGLLAGLWEFPSVTWEPSEQLQRKALLQELQRWAGPLPATHLRHLGEVVHTFSHIKLTYQVYGLALEGQTPVTTVPPGARWLTQEEFHTAAVSTAMKKVFRVYQGQQPGTCMGSKRSQVSSPCSRKKPRMGQQVLDNFFRSHISTDAHSLNSAAQ

Variants of: B1
Experiment: 8OG:A repair function score (normalized; synonymous = 0, nonsense = -1) (normalized log-likelihood score); higher = more repair activity (WT-like)
Conditions: with 8OG:A DNA repair reporter (GFP) in HEK-293 MUTYH KO cells
Method in brief: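 Lentiviral MUTYH cDNA NNN codon-scan libraries in HEK-293 MUTYH knockout cells (10 pg/ml doxycycline) were co-transfected with an 8OG:A GFP repair reporter plus mCherry. At 72 h, viable mCherry+ cells were sorted into GFP+ (repair) and GFP− bins, three replicates per tile, then tile amplicons were sequenced. Per-tile Rosace fitness scores became a normalized repair function score anchored on synonymous and nonsense distributions. Synonymous medians were set to 0 and nonsense to -1; variants under 300 counts per million at the start were removed.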
MRKPRAAVGSGHRKQAASQEGRQKHAKNNSQAKPSACDGLARQPEEVVLQASVSSYHLFRDVAEVTAFRGSLLSWYDQEKRDLPWRRRAEDEMDLDRRAYAVWVSEVMLQQTQVATVINYYTGWMQKWPTLQDLASASLEEVNQLWAGLGYYSRGRRLQEGARKVVEELGGHMPRTAETLQQLLPGVGRYTAGAIASIAFGQATGVVDGNVARVLCRVRAIGADPSSTLVSQQLWGLAQQLVDPARPGDFNQAAMELGATVCTPQRPLCSQCPVESLCRARQRVEQEQLLASGSLSGSPDVEECAPNTGQCHLCLPPSEPWDQTLGVVNFPRKASRKPPREESSATCVLEQPGALGAQILLVQRPNSGLLAGLWEFPSVTWEPSEQLQRKALLQELQRWAGPLPATHLRHLGEVVHTFSHIKLTYQVYGLALEGQTPVTTVPPGARWLTQEEFHTAAVSTAMKKVFRVYQGQQPGTIMGSKRSQVSSPCSRKKPRMGQQVLDNFFRSHISTDAHSLNSAAQ [C477I] was tested, and the “8OG:A repair function score” value was -0.0054. With MRKPRAAVGSGHRKQAASQEGRQKHAKNNSQAKPSACDGLARQPEEVVLQASVSSYHLFRDVAEVTAFRGSLLSWYDQEKRDLPWRRRAEDEMDLDRRAYAVWVSEVMLQQTQVATVINYYTGWMQKWPTLQDLASASLEEVNQLWAGLGYYSRGRRLQEGARKVVEELGGHMPRTAETLQQLLPGVGRYTAGAIASIAFGQATGVVDGNVARVLCRVRAIGADPSSTLVSQQLWGLAQQLVDPARPGDFNQAAMELGATVCTPQRPLCSQCPVESLCRARQRVEQEQLLASGSLSGSPDVEECAPNTGQCHLCLPPSEPWDQTLGVVNFPRKASRKPPREESSATCVLEQPGALGAQILLVQRPNSGLLAGLWEFPSVTWEPSEQLQRKALLQELQRWAGPLPATHLRHLGEVVHTFSHIKLTYQVYGLALEGQTPVTTVPPGARWLTQEEFHTAAVSTAMKKVFRVYQGQQPGTKMGSKRSQVSSPCSRKKPRMGQQVLDNFFRSHISTDAHSLNSAAQ [C477K] the “8OG:A repair function score” value was 0.00687. For MRKPRAAVGSGHRKQAASQEGRQKHAKNNSQAKPSACDGLARQPEEVVLQASVSSYHLFRDVAEVTAFRGSLLSWYDQEKRDLPWRRRAEDEMDLDRRAYAVWVSEVMLQQTQVATVINYYTGWMQKWPTLQDLASASLEEVNQLWAGLGYYSRGRRLQEGARKVVEELGGHMPRTAETLQQLLPGVGRYTAGAIASIAFGQATGVVDGNVARVLCRVRAIGADPSSTLVSQQLWGLAQQLVDPARPGDFNQAAMELGATVCTPQRPLCSQCPVESLCRARQRVEQEQLLASGSLSGSPDVEECAPNTGQCHLCLPPSEPWDQTLGVVNFPRKASRKPPREESSATCVLEQPGALGAQILLVQRPNSGLLAGLWEFPSVTWEPSEQLQRKALLQELQRWAGPLPATHLRHLGEVVHTFSHIKLTYQVYGLALEGQTPVTTVPPGARWLTQEEFHTAAVSTAMKKVFRVYQGQQPGTPMGSKRSQVSSPCSRKKPRMGQQVLDNFFRSHISTDAHSLNSAAQ [C477P], the “8OG:A repair function score” value was -0.00239. In the case of MRKPRAAVGSGHRKQAASQEGRQKHAKNNSQAKPSACDGLARQPEEVVLQASVSSYHLFRDVAEVTAFRGSLLSWYDQEKRDLPWRRRAEDEMDLDRRAYAVWVSEVMLQQTQVATVINYYTGWMQKWPTLQDLASASLEEVNQLWAGLGYYSRGRRLQEGARKVVEELGGHMPRTAETLQQLLPGVGRYTAGAIASIAFGQATGVVDGNVARVLCRVRAIGADPSSTLVSQQLWGLAQQLVDPARPGDFNQAAMELGATVCTPQRPLCSQCPVESLCRARQRVEQEQLLASGSLSGSPDVEECAPNTGQCHLCLPPSEPWDQTLGVVNFPRKASRKPPREESSATCVLEQPGALGAQILLVQRPNSGLLAGLWEFPSVTWEPSEQLQRKALLQELQRWAGPLPATHLRHLGEVVHTFSHIKLTYQVYGLALEGQTPVTTVPPGARWLTQEEFHTAAVSTAMKKVFRVYQGQQPGTNMGSKRSQVSSPCSRKKPRMGQQVLDNFFRSHISTDAHSLNSAAQ [C477N], the “8OG:A repair function score” value is reported as 0.0283. In the case of MRKPRAAVGSGHRKQAASQEGRQKHAKNNSQAKPSACDGLARQPEEVVLQASVSSYHLFRDVAEVTAFRGSLLSWYDQEKRDLPWRRRAEDEMDLDRRAYAVWVSEVMLQQTQVATVINYYTGWMQKWPTLQDLASASLEEVNQLWAGLGYYSRGRRLQEGARKVVEELGGHMPRTAETLQQLLPGVGRYTAGAIASIAFGQATGVVDGNVARVLCRVRAIGADPSSTLVSQQLWGLAQQLVDPARPGDFNQAAMELGATVCTPQRPLCSQCPVESLCRARQRVEQEQLLASGSLSGSPDVEECAPNTGQCHLCLPPSEPWDQTLGVVNFPRKASRKPPREESSATCVLEQPGALGAQILLVQRPNSGLLAGLWEFPSVTWEPSEQLQRKALLQELQRWAGPLPATHLRHLGEVVHTFSHIKLTYQVYGLALEGQTPVTTVPPGARWLTQEEFHTAAVSTAMKKVFRVYQGQQPGTLMGSKRSQVSSPCSRKKPRMGQQVLDNFFRSHISTDAHSLNSAAQ [C477L], the “8OG:A repair function score” value is reported as 0.0205. MRKPRAAVGSGHRKQAASQEGRQKHAKNNSQAKPSACDGLARQPEEVVLQASVSSYHLFRDVAEVTAFRGSLLSWYDQEKRDLPWRRRAEDEMDLDRRAYAVWVSEVMLQQTQVATVINYYTGWMQKWPTLQDLASASLEEVNQLWAGLGYYSRGRRLQEGARKVVEELGGHMPRTAETLQQLLPGVGRYTAGAIASIAFGQATGVVDGNVARVLCRVRAIGADPSSTLVSQQLWGLAQQLVDPARPGDFNQAAMELGATVCTPQRPLCSQCPVESLCRARQRVEQEQLLASGSLSGSPDVEECAPNTGQCHLCLPPSEPWDQTLGVVNFPRKASRKPPREESSATCVLEQPGALGAQILLVQRPNSGLLAGLWEFPSVTWEPSEQLQRKALLQELQRWAGPLPATHLRHLGEVVHTFSHIKLTYQVYGLALEGQTPVTTVPPGARWLTQEEFHTAAVSTAMKKVFRVYQGQQPGTMMGSKRSQVSSPCSRKKPRMGQQVLDNFFRSHISTDAHSLNSAAQ [C477M] was tested, and the “8OG:A repair function score” value was 0.00893.
